The values that follow are results of earlier work, collected in article PMC9607845.

Data set [1] deals with BCOR peptide (Homo sapiens) (UniProt Q6W2J9).
Data set [2] has as its target SMRT SMRT peptide (Homo sapiens) (UniProt Q9Y618).
In data set [3] the target is SMRT peptide (Homo sapiens) (UniProt Q9Y618).
Data set [4] has as its target BCOR BCOR peptide (Homo sapiens) (UniProt Q6W2J9).
For data set [5], the target named is Mig6 segment 1 peptide segment 1 (Homo sapiens) (UniProt Q9UJM3).
For data set [6], the target named is Mig6 segment 1 peptide (Homo sapiens) (UniProt Q9UJM3).
Mig6 segment 1 peptide (Homo sapiens), sequence (Q9UJM3 336-364): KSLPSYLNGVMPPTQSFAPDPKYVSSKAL
For data set [7], the target named is p73 peptide (Homo sapiens) (UniProt O15350).
p73 peptide (Homo sapiens), sequence (O15350 whole entry): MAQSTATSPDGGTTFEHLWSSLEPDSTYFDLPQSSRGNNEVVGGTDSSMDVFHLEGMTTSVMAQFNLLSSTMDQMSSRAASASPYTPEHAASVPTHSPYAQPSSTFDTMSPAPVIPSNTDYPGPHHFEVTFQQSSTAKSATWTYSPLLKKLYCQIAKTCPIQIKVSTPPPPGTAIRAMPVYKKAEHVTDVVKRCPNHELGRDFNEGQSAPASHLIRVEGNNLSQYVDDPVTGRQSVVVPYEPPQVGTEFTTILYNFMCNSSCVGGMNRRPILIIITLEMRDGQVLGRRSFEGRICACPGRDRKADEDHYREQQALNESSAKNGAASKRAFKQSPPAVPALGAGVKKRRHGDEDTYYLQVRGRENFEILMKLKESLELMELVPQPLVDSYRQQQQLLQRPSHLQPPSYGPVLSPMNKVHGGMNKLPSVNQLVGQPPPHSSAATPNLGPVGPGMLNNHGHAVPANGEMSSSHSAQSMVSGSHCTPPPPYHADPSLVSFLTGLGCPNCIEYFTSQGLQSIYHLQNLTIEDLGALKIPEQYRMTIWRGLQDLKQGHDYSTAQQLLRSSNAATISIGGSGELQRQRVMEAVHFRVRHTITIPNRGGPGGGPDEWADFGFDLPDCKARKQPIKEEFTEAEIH
In data set [8] the target is p63 peptide (Homo sapiens) (UniProt Q9H3D4).
p63 peptide (Homo sapiens), sequence (Q9H3D4 whole entry): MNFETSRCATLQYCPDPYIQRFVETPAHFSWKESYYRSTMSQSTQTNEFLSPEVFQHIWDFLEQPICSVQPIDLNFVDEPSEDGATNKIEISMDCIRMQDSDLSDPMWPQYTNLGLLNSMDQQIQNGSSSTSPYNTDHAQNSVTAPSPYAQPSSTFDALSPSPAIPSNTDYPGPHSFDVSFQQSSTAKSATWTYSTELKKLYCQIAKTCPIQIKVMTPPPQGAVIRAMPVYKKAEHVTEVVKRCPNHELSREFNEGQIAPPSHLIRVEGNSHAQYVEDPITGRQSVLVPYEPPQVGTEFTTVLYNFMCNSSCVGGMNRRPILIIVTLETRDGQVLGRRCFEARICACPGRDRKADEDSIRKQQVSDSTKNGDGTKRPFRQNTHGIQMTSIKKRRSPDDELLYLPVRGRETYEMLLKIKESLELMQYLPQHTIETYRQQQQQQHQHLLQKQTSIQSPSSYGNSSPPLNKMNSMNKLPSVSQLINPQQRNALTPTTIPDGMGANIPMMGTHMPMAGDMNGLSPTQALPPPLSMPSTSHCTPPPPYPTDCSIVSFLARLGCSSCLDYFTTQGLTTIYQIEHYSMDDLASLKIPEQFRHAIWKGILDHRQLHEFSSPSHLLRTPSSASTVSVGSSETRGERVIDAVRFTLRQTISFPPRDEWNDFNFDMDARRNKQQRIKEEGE
Data set [9] has the same target. The source holds these as a separate data set.
Data set [10] deals with p73 peptide (Homo sapiens) (UniProt O15350). The source holds these as a separate data set.

Read-outs that look alike come from different tables or passages of the source.

MDM2 MDM2N, sequence (Q00987 17-125): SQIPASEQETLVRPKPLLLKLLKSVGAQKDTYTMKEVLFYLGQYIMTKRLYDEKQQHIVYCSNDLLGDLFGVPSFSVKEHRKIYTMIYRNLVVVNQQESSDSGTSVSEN
Mig6 segment 1 peptide segment 1 (Homo sapiens), sequence (Q9UJM3 334-363): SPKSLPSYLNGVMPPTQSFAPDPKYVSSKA
BCOR peptide (Homo sapiens), sequence (Q6W2J9 whole entry): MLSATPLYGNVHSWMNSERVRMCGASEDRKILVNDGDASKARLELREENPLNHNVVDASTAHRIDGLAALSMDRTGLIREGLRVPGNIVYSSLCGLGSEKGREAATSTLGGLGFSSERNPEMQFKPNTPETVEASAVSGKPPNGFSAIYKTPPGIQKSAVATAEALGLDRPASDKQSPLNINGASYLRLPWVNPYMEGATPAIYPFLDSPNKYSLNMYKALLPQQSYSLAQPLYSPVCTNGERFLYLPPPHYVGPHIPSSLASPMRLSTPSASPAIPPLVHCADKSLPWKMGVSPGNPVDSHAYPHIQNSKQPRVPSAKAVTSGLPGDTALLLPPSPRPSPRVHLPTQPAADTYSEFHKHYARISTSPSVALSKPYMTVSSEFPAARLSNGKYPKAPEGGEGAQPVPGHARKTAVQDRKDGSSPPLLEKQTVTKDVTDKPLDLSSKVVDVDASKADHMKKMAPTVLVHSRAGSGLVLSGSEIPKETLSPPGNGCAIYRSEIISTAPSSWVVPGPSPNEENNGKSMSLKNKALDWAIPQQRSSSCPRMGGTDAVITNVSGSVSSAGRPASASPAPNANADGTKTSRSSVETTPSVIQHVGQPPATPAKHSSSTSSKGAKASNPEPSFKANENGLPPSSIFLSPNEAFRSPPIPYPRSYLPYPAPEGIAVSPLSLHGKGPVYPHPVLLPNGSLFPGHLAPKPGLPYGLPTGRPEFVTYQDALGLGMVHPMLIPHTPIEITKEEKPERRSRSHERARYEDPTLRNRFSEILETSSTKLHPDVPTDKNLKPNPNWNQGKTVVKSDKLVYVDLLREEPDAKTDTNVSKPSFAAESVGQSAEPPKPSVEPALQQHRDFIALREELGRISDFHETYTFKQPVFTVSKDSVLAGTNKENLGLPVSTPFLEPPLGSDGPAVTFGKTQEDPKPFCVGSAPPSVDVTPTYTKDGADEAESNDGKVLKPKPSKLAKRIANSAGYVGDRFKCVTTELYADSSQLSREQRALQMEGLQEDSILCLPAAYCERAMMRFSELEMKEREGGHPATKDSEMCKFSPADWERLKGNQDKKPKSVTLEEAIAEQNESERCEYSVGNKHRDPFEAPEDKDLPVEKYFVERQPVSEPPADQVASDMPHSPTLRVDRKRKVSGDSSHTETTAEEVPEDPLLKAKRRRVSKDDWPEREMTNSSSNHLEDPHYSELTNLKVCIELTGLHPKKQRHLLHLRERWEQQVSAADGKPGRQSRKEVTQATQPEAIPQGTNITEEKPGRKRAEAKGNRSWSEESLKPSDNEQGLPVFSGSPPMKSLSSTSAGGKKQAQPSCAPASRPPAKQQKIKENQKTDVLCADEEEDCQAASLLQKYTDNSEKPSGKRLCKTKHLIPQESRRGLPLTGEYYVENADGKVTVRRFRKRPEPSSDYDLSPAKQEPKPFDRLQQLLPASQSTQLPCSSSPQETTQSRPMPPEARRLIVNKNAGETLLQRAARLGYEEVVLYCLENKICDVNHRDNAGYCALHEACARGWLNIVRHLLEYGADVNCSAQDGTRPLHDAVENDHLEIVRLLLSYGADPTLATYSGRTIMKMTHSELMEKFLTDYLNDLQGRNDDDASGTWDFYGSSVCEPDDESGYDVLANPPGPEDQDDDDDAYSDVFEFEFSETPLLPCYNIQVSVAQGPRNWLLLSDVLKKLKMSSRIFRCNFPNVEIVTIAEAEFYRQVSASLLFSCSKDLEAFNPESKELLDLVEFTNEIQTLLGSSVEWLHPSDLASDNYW

Regarding Bcl6 BTB (from UniProt P41182), the Kd in data set [1] was 1.3 µM; in data set [2], 11 µM; in data set [3] it was 11 µM; in data set [4] it was 1.3 µM.

Consider “EGFR kinase domain C-lobe (from UniProt P00533)”, for which the dissociation constant Kd in data set [5] and in data set [6] was 13 µM in each case.

Turning to MDM2 MDM2N (from UniProt Q00987), the dissociation constant Kd in data set [7] is 1.4 µM; in data set [8] it was 26 µM.

On to “MDM2 N-terminal domain (from UniProt Q00987)”, for which the equilibrium dissociation constant (Kd) in data set [9] is 26 µM; in data set [10], 1.4 µM.

In general, Kd refers to the free concentration of one partner at which half of the binding sites on the other are occupied at equilibrium, for simple one-to-one binding.
